Data as given in paper PMC3794980.
pIC50: −log10 of the molar value.

Tests used:
[1] = molecular target: HLA-DR DRB1*0301 (human (endogenous in EBV transformed cell lines)); assay: radioligand binding
[2] = molecular target: HLA-DR DRB1*0802 (human (endogenous in EBV transformed cell lines)); assay: radioligand binding
[3] = molecular target: HLA-DR DRB1*0901 (human (endogenous in EBV transformed cell lines)); assay: radioligand binding
[4] = molecular target: HLA-DR DRB1*1101 (human (endogenous in EBV transformed cell lines)); assay: radioligand binding
[5] = molecular target: HLA-DR DRB1*1302 (human (endogenous in EBV transformed cell lines)); assay: radioligand binding
[6] = molecular target: HLA-DR DRB1*1501 (human (endogenous in EBV transformed cell lines)); assay: radioligand binding
HLA-A2:Ig fusion protein = assay: fluorescence polarisation
[7] = molecular target: HLA-DR DRB1*0401 (human (endogenous in EBV transformed cell lines)); assay: radioligand binding
[8] = molecular target: HLA-DR DRB1*0405 (human (endogenous in EBV transformed cell lines)); assay: radioligand binding
[9] = molecular target: HLA-DR DRB1*0701 (human (endogenous in EBV transformed cell lines)); assay: radioligand binding
[10] = molecular target: HLA-DR DRB1*0101 (human (endogenous in EBV transformed cell lines)); assay: radioligand binding
[11] = molecular target: HLA-DR DRB1*0404 (human (endogenous in EBV transformed cell lines)); assay: radioligand binding
[12] = molecular target: HLA-DR DRB3*0101 (human (endogenous in EBV transformed cell lines)); assay: radioligand binding
[13] = molecular target: HLA-DR DRB5*0101 (human (endogenous in EBV transformed cell lines)); assay: radioligand binding
[14] = molecular target: HLA class II molecule DRB1*1501 (human (endogenous in EBV transformed homozygous cell lines)); assay: radioligand binding
[15] = molecular target: HLA-DR DRB4*0101 (human (endogenous in EBV transformed cell lines)); assay: radioligand binding

DENV3 NS5 866-882 (peptide)
pIC50 [1]: 6.75 | pIC50 [2]: 8.15 | pIC50 [3]: 7.18 | pIC50 [4]: 6.38 | pIC50 [5]: 6.27 | pIC50 [6]: 6.83

DENV3 Env_(106–114) (peptide)
pIC50 (HLA-A2:Ig fusion protein): 8.54

DENV3 Envelope 161-175 (peptide)
pIC50 [7]: 6.94 | pIC50 [8]: 6.16 | pIC50 [9]: 6.29 | pIC50 [2]: 7.20 | pIC50 [5]: 7.17

DENV3 NS5 719-735 (peptide)
pIC50 [10]: 6.67 | pIC50 [1]: 7.36 | pIC50 [11]: 6.72 | pIC50 [8]: 7.65 | pIC50 [5]: 6.64

DENV3 NS5 765-779 (peptide)
pIC50 [10]: 7.39 | pIC50 [2]: 8.11 | pIC50 [3]: 7.21 | pIC50 [5]: 8.31 | pIC50 [6]: 6.93 | pIC50 [12]: 6.90 | pIC50 [13]: 6.14

DENV3 Env_(231–245) (peptide)
pIC50 [14]: > 7.70

DENV3 NS1 117-131 (peptide)
pIC50 [7]: 7.55 | pIC50 [11]: 6.16 | pIC50 [8]: 6.55 | pIC50 [2]: 7.25 | pIC50 [12]: 6.27

DENV3 NS3 353-367 (peptide)
pIC50 [11]: 6.07 | pIC50 [8]: 6.05 | pIC50 [9]: 7.06

DENV3 NS5 564-580 (peptide)
pIC50 [10]: 7.73 | pIC50 [1]: 6.65 | pIC50 [7]: 6.41 | pIC50 [3]: 7.00 | pIC50 [4]: 6.46 | pIC50 [5]: 7.95 | pIC50 [6]: 7.55 | pIC50 [12]: 6.24 | pIC50 [13]: 6.52

DENV3 NS5 747-763 (peptide)
pIC50 [10]: 7.27 | pIC50 [11]: 6.95 | pIC50 [8]: 7.41 | pIC50 [3]: 6.41 | pIC50 [6]: 6.78

DENV4 inter-serotype variant of NS3_(399–407) (peptide)
pIC50 (HLA-A2:Ig fusion protein): 7.21

DENV3 NS3 309-323 (peptide)
pIC50 [10]: 7.57 | pIC50 [7]: 8.63 | pIC50 [11]: 6.46 | pIC50 [8]: 7.49 | pIC50 [9]: 7.32 | pIC50 [2]: 7.51 | pIC50 [3]: 6.89 | pIC50 [6]: 6.44 | pIC50 [15]: 8.04

DENV3 NS5 769-785 (peptide)
pIC50 [10]: 7.55 | pIC50 [1]: 6.39 | pIC50 [7]: 8.44 | pIC50 [11]: 7.03 | pIC50 [8]: 7.80 | pIC50 [2]: 7.56 | pIC50 [3]: 7.21 | pIC50 [4]: 7.10 | pIC50 [5]: 8.35 | pIC50 [15]: 6.67 | pIC50 [13]: 6.95

DENV3 NS3_(357–371) (peptide)
pIC50 [14]: > 7.70

DENV3 NS3 277-291 (peptide)
pIC50 [10]: 6.42 | pIC50 [1]: 7.43 | pIC50 [7]: 6.85 | pIC50 [8]: 6.40 | pIC50 [2]: 6.40 | pIC50 [5]: 7.17 | pIC50 [12]: 8.35

DENV3 Envelope 156-170 (peptide)
pIC50 [10]: 6.33 | pIC50 [7]: 8.12 | pIC50 [11]: 6.35 | pIC50 [8]: 7.34 | pIC50 [15]: 6.15

DENV3 Envelope 41-55 (peptide)
pIC50 [10]: 8.63 | pIC50 [9]: 8.50 | pIC50 [2]: 8.29 | pIC50 [3]: 6.88 | pIC50 [5]: 7.57 | pIC50 [15]: 8.19 | pIC50 [13]: 6.16

DENV3 NS3 297-311 (peptide)
pIC50 [7]: 7.79 | pIC50 [11]: 6.90 | pIC50 [8]: 7.05 | pIC50 [9]: 7.11 | pIC50 [4]: 7.45

DENV3 Env_(126–140) (peptide)
pIC50 [14]: > 7.70

DENV3 NS5 714-729 (peptide)
pIC50 [1]: 7.43 | pIC50 [3]: 6.16 | pIC50 [4]: 6.17 | pIC50 [5]: 7.97 | pIC50 [6]: 7.18 | pIC50 [13]: 6.61

DENV3 NS5 233-248 (peptide)
pIC50 [10]: 6.97 | pIC50 [7]: 7.24 | pIC50 [8]: 6.16 | pIC50 [2]: 6.80 | pIC50 [4]: 7.80 | pIC50 [5]: 7.47 | pIC50 [6]: 6.51 | pIC50 [15]: 6.21 | pIC50 [13]: 6.38

DENV3 NS1 169-183 (peptide)
pIC50 [10]: 6.65 | pIC50 [7]: 6.32 | pIC50 [11]: 6.34 | pIC50 [8]: 6.56 | pIC50 [9]: 6.87 | pIC50 [3]: 6.19 | pIC50 [6]: 6.36 | pIC50 [12]: 6.13 | pIC50 [15]: 6.06

DENV3 NS5 477-493 (peptide)
pIC50 [10]: 7.93 | pIC50 [7]: 7.17 | pIC50 [11]: 6.91 | pIC50 [8]: 7.26 | pIC50 [9]: 7.58 | pIC50 [3]: 7.10 | pIC50 [12]: 7.59 | pIC50 [15]: 6.56 | pIC50 [13]: 7.25

DENV3 NS5 221-237 (peptide)
pIC50 [10]: 8.40 | pIC50 [1]: 7.82 | pIC50 [7]: 8.98 | pIC50 [11]: 7.07 | pIC50 [8]: 7.60 | pIC50 [9]: 7.68 | pIC50 [2]: 8.23 | pIC50 [3]: 7.35 | pIC50 [4]: 7.51 | pIC50 [5]: 7.18 | pIC50 [6]: 7.70 | pIC50 [15]: 7.22

DENV3 NS1 85-99 (peptide)
pIC50 [10]: 7.25 | pIC50 [1]: 6.27 | pIC50 [7]: 7.06 | pIC50 [9]: 7.15 | pIC50 [3]: 7.38 | pIC50 [4]: 6.09 | pIC50 [5]: 6.32 | pIC50 [6]: 7.67

DENV3 NS3 237-251 (peptide)
pIC50 [7]: 7.88 | pIC50 [11]: 6.51 | pIC50 [8]: 6.82 | pIC50 [2]: 7.45 | pIC50 [3]: 6.03 | pIC50 [4]: 6.09 | pIC50 [6]: 6.20 | pIC50 [13]: 7.89

DENV3 NS3 433-447 (peptide)
pIC50 [1]: 7.16 | pIC50 [5]: 7.63 | pIC50 [12]: 6.87
